From patent publication US20090324609A1

Target: PD-1 receptor on T cells of anti-CD3-activated Balb/c splenocytes (mouse) (UniProt Q02242)
Assay: cell-based or functional assay

Chain of UniProt Q02242 (Q02242 25-288): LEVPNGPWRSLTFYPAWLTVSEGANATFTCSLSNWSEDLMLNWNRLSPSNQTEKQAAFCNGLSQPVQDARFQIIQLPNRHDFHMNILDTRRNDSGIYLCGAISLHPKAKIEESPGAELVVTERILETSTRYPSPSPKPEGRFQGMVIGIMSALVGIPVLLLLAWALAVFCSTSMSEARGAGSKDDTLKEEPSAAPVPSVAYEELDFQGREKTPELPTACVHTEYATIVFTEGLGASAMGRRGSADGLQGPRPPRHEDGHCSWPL

Question: Which results are given for “PD-L1 (Programmed death ligand 1) on the surface of wildtype C57BL/6 mouse mesenchymal stem cells (from UniProt Q9EP73 19-290)”?
Answer: Fold suppression of T cell proliferation by wildtype B6 MSCs (CFSE, anti-CD3-activated Balb/c splenocytes): > 5 fold; Fold suppression of T cell proliferation when PD-L1 is absent from the MSCs (B6 PD-L1-/- MSCs; CFSE, anti-CD3-activated Balb/c splenocytes): < 2 fold; T cell proliferation (CFSE-labelled Balb/c splenocytes activated with anti-CD3, flow cytometry); percent proliferating with wildtype B6 MSCs, against 87% without MSCs: 16%
